Substitutions are numbered along the chain they refer to.

Holding throughout (assay): EMSA
The target of one data set is T1, ZαβZBP1 Y50A (Homo sapiens, UniProt Q9H171 4-167, Y50A).
T1 sequence: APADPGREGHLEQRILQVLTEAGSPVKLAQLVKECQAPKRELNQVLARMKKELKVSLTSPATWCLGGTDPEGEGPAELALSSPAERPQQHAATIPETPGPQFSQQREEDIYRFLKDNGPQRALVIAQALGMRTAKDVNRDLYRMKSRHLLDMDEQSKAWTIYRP

The target of data set [1] is T2, ZαβZBP1 N46D/Y50A/N141D/Y145A (Homo sapiens, UniProt Q9H171 4-167, N46D;Y50A;N141D;Y145A).
T2 sequence: T1 sequence with N43D, N138D, Y142A

For the next data set, the target named is T3, ZαβZBP1 N141D/Y145A (Homo sapiens, UniProt Q9H171 4-167, N141D;Y145A).
T3 sequence: T1 sequence with A47Y, N138D, Y142A

Another data set addresses T4, ZαβZBP1 N46D/Y50A (Homo sapiens, UniProt Q9H171 4-167, N46D;Y50A).
T4 sequence: T1 sequence with N43D

The target of another data set is T5, ZαβZBP1 N46D (Homo sapiens, UniProt Q9H171 4-167, N46D).
T5 sequence: T1 sequence with N43D, A47Y

The target in a further data set is T6, ZαZBP1 (Homo sapiens, UniProt Q9H171 4-86).
T6 sequence: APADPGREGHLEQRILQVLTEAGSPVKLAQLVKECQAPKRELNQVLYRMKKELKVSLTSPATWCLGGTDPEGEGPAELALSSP

The next data set concerns the target T7, ZβZBP1 (Homo sapiens, UniProt Q9H171 4-10+87-167, internal_change).
T7 sequence: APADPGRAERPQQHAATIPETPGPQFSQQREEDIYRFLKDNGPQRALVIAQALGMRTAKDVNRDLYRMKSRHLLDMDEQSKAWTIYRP

Another data set concerns the target T8, ZαβZBP1 (Homo sapiens, UniProt Q9H171 4-167).
T8 sequence: T1 sequence with A47Y

Another data set deals with T9, ZαβADAR1 (Homo sapiens, UniProt P55265 133-368).
T9 sequence: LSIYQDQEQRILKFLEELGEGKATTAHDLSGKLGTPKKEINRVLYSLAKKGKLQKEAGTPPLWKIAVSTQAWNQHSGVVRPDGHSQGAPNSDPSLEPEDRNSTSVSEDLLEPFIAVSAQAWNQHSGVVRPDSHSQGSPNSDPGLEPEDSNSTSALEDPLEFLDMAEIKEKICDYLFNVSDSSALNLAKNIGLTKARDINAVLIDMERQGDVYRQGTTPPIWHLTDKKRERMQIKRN

B1: (dC-dG)20 (dsDNA)
DNA 1: CGCGCGCGCGCGCGCGCGCGCGCGCGCGCGCGCGCGCGCG
DNA 2: B1 DNA 1
Regarding B1, the binding result with ZαβZBP1 Y50A is reported as “no binding”; in data set [1] it was “no binding”; with ZαβZBP1 N141D/Y145A, “no binding”; with ZαβZBP1 N46D/Y50A it was “no binding”; with ZαβZBP1 N46D it was “no binding”; in the data set with ZαZBP1, “binds”. Further, the binding result with ZβZBP1, with ZαβZBP1 and with ZαβADAR1 was “binds” in each case.

(Values after PMC1636418.)
